What all share (assay): SPR
Experiment [1] has as its target T1, Recombinant SERPINA1 protein (alpha-1 antitrypsin) (human, UniProt P01009 25-418).
The target of experiment [2] is T2, Recombinant SERPINE1 protein (plasminogen activator inhibitor 1) (human, UniProt P05121 24-402).
In experiment [3] the target is T3, Recombinant SERPINC1 protein (antithrombin III) (human, UniProt P01008 33-464).
Experiment [4] concerns the target T1, Recombinant SERPINA1 protein (alpha-1 …). This is another data set of the same source.
Experiment [5] addresses T2, Recombinant SERPINE1 protein …. The source holds these as a separate data set.
Experiment [6] deals with T3, Recombinant SERPINC1 protein …. This is another data set of the same source.

The Kd is the free concentration of one partner at which half of the binding sites on the other are occupied at equilibrium, for simple one-to-one binding. For orientation: koff means the first-order rate constant of dissociation.

T2 sequence (P05121 24-402): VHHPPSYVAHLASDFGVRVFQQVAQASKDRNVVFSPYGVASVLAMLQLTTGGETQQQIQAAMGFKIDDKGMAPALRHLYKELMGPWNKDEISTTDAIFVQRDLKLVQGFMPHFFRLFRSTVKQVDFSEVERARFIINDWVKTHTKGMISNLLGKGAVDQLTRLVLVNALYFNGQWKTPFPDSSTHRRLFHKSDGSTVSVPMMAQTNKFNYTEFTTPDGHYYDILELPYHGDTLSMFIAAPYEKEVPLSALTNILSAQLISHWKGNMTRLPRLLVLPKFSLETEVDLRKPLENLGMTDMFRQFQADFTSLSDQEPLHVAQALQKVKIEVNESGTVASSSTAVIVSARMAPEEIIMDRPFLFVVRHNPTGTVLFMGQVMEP
T3 sequence (P01008 33-464): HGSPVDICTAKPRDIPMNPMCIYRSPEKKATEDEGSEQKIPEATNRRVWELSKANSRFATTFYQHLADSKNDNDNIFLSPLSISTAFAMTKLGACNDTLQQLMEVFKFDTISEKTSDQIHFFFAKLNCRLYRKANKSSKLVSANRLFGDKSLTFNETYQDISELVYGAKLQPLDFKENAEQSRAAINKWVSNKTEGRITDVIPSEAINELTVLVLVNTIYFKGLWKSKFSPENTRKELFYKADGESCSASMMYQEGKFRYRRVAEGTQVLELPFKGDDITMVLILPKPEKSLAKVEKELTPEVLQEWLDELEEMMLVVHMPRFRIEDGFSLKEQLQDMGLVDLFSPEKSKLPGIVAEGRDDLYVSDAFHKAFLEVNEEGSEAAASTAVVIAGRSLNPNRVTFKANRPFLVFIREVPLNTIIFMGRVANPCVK
T1 sequence (P01009 25-418): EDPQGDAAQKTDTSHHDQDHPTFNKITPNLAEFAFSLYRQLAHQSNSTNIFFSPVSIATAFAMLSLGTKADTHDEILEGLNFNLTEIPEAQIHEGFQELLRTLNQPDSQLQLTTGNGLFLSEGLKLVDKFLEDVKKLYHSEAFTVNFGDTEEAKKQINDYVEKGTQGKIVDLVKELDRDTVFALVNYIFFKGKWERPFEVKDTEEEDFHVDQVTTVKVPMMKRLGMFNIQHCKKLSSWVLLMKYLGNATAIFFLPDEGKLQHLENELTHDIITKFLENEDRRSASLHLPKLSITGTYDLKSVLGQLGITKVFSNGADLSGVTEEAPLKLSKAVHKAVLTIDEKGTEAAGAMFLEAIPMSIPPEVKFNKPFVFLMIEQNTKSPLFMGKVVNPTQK

B1: Active recombinant TMPRSS2 (transmembrane serine protease 2) (enzyme)
chain: not shown
Take B1: the dissociation constant Kd in experiment [1] amounted to 20.8 nM; in experiment [2] it was 9.5 nM; in experiment [3], 17.9 nM. For the same molecule, the off-rate (koff) was 0.00377 s⁻¹ in experiment [4], 0.00253 s⁻¹ in experiment [5] and 0.00324 s⁻¹ in experiment [6].

B2: Tissue plasminogen activator (enzyme)
chain: SYQVICRDEKTQMIYQQHQSWLRPVLRSNRVEYCWCNSGRAQCHSVPVKSCSEPRCFNGGTCQQALYFSDFVCQCPEGFAGKCCEIDTRATCYEDQGISYRGTWSTAESGAECTNWNSSALAQKPYSGRRPDAIRLGLGNHNYCRNPDRDSKPWCYVFKAGKYSSEFCSTPACSEGNSDCYFGNGSAYRGTHSLTESGASCLPWNSMILIGKVYTAQNPSAQALGLGKHNYCRNPDGDAKPWCHVLKNRRLTWEYCDVPSCSTCGLRQYSQPQFRIKGGLFADIASHPWQAAIFAKHRRSPGERFLCGGILISSCWILSAAHCFQERFPPHHLTVILGRTYRVVPGEEEQKFEVEKYIVHKEFDDDTYDNDIALLQLKSDSSRCAQESSVVRTVCLPPADLQLPDWTECELSGYGKHEALSPFYSERLKEAHVRLYPSSRCTSQHLLNRTVTDNMLCAGDTRSGGPQANLHDACQGDSGGPLVCLNDGRMTLVGIISWGLGCGQKDVPGVYTKVTNYLDWIRDNMRP
With B2, the equilibrium dissociation constant (Kd) in experiment [2] worked out at 246 nM. In addition, the koff in experiment [5] amounted to 0.00787 s⁻¹.

The values above are taken from PMC9239148 (2022).
